The supplement of paper PMC9112550, “Optimization of the antimicrobial peptide Bac7 by deep mutational scanning” (BMC Biology, 2022)

Tested on: Escherichia coli TOP10
Assay: shrunken log2 fold change of peptide-encoding DNA abundance (4.5 h post-induction vs induction); higher = less antimicrobial activity (less host growth inhibition)
Conditions: time post-induction: 4.5 h; library: site-saturation at positions 5, 18, 19, 20
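Note: peptides expressed intracellularly from a pBAD plasmid library in pooled LB shake-flask culture, induced with 0.3% L-arabinose, DNA abundance read by NGS, three biological replicates, DESeq2 with apeglm shrinkage.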

RRIRMRPPRLPRPRPRPNYHPRP
shrunken log2 fold change: -0.525

RRIRIRPPRLPRPRPRPMADPRP
shrunken log2 fold change: -0.0382

RRIRHRPPRLPRPRPRPKEAPRP
shrunken log2 fold change: 0.00884

RRIRIRPPRLPRPRPRPWLQPRP
shrunken log2 fold change: 0.0391

RRIRNRPPRLPRPRPRPGAEPRP
shrunken log2 fold change: 0.374

RRIRERPPRLPRPRPRPRMTPRP
shrunken log2 fold change: 0.0697

RRIRDRPPRLPRPRPRPVCYPRP
shrunken log2 fold change: -0.0717

RRIRRRPPRLPRPRPRPYIMPRP
shrunken log2 fold change: -0.733

RRIRQRPPRLPRPRPRPCVCPRP
shrunken log2 fold change: -0.0231

RRIRHRPPRLPRPRPRPTFGPRP
shrunken log2 fold change: 0.0378

RRIRWRPPRLPRPRPRPDRYPRP
shrunken log2 fold change: -0.0301

RRIRPRPPRLPRPRPRPQERPRP
shrunken log2 fold change: 0.0985

RRIRTRPPRLPRPRPRPGNNPRP
shrunken log2 fold change: -0.14

RRIRMRPPRLPRPRPRPNITPRP
shrunken log2 fold change: 0.314

RRIRMRPPRLPRPRPRPPQCPRP
shrunken log2 fold change: 0.566

RRIRNRPPRLPRPRPRPVWVPRP
shrunken log2 fold change: 0.0909

RRIRDRPPRLPRPRPRPVPSPRP
shrunken log2 fold change: 0.314

RRIRVRPPRLPRPRPRPQPDPRP
shrunken log2 fold change: 0.23

RRIRCRPPRLPRPRPRPQYQPRP
shrunken log2 fold change: -0.697

RRIRPRPPRLPRPRPRPLNFPRP
shrunken log2 fold change: -0.139

RRIRIRPPRLPRPRPRPVYVPRP
shrunken log2 fold change: -1.58

RRIRLRPPRLPRPRPRPRWPPRP
shrunken log2 fold change: 0.716

RRIRVRPPRLPRPRPRPSYIPRP
shrunken log2 fold change: -0.74

RRIRARPPRLPRPRPRPDLWPRP
shrunken log2 fold change: 1.51

RRIRYRPPRLPRPRPRPFAQPRP
shrunken log2 fold change: -0.159

RRIRYRPPRLPRPRPRPLPQPRP
shrunken log2 fold change: -0.0827

RRIRTRPPRLPRPRPRPNHPPRP
shrunken log2 fold change: 0.0542

RRIRQRPPRLPRPRPRPVRKPRP
shrunken log2 fold change: -0.0285

RRIRRRPPRLPRPRPRPPCTPRP
shrunken log2 fold change: 1.59

RRIRTRPPRLPRPRPRPFSRPRP
shrunken log2 fold change: 0.0136

RRIRFRPPRLPRPRPRPHFWPRP
shrunken log2 fold change: -0.124

RRIRSRPPRLPRPRPRPFFKPRP
shrunken log2 fold change: -0.192

RRIRYRPPRLPRPRPRPNSEPRP
shrunken log2 fold change: -0.589

RRIRQRPPRLPRPRPRPSSQPRP
shrunken log2 fold change: -0.395

RRIRTRPPRLPRPRPRPTQVPRP
shrunken log2 fold change: 0.131

RRIRQRPPRLPRPRPRPFMMPRP
shrunken log2 fold change: -0.25

RRIRGRPPRLPRPRPRPLPEPRP
shrunken log2 fold change: 0.884

RRIRCRPPRLPRPRPRPMYDPRP
shrunken log2 fold change: -0.0891

RRIRYRPPRLPRPRPRPNFRPRP
shrunken log2 fold change: -0.425

RRIRIRPPRLPRPRPRPNHWPRP
shrunken log2 fold change: 0.0534

RRIRARPPRLPRPRPRPYLSPRP
shrunken log2 fold change: -0.451

RRIRWRPPRLPRPRPRPKQKPRP
shrunken log2 fold change: 0.0665

RRIRQRPPRLPRPRPRPRDDPRP
shrunken log2 fold change: 0.538

RRIRDRPPRLPRPRPRPAVRPRP
shrunken log2 fold change: -0.0321

RRIRLRPPRLPRPRPRPLWHPRP
shrunken log2 fold change: 0.0621

RRIRHRPPRLPRPRPRPGLFPRP
shrunken log2 fold change: -0.0985

RRIRPRPPRLPRPRPRPHQEPRP
shrunken log2 fold change: 4.12

RRIRWRPPRLPRPRPRPTMFPRP
shrunken log2 fold change: 0.0589

RRIRERPPRLPRPRPRPYLAPRP
shrunken log2 fold change: -0.225

RRIRERPPRLPRPRPRPATKPRP
shrunken log2 fold change: 0.156

RRIRCRPPRLPRPRPRPWCIPRP
shrunken log2 fold change: -0.308

RRIRARPPRLPRPRPRPFEGPRP
shrunken log2 fold change: 0.0201

RRIRERPPRLPRPRPRPKCGPRP
shrunken log2 fold change: 0.0971

RRIRDRPPRLPRPRPRPSKIPRP
shrunken log2 fold change: -0.381

RRIRFRPPRLPRPRPRPMFDPRP
shrunken log2 fold change: -0.155

RRIRMRPPRLPRPRPRPPENPRP
shrunken log2 fold change: -0.0255

RRIRDRPPRLPRPRPRPLYYPRP
shrunken log2 fold change: 0.176

RRIRCRPPRLPRPRPRPLYIPRP
shrunken log2 fold change: -0.882

RRIRCRPPRLPRPRPRPHLIPRP
shrunken log2 fold change: 0.282

RRIRARPPRLPRPRPRPCWTPRP
shrunken log2 fold change: 0.01

RRIRLRPPRLPRPRPRPAAEPRP
shrunken log2 fold change: 0.432

RRIRPRPPRLPRPRPRPMMHPRP
shrunken log2 fold change: -0.0262

RRIRARPPRLPRPRPRPMLMPRP
shrunken log2 fold change: 0.044

RRIRERPPRLPRPRPRPDQSPRP
shrunken log2 fold change: -0.336

RRIRARPPRLPRPRPRPTYMPRP
shrunken log2 fold change: -0.36

RRIRNRPPRLPRPRPRPQHCPRP
shrunken log2 fold change: -0.065

RRIRWRPPRLPRPRPRPEDKPRP
shrunken log2 fold change: -0.028

RRIRPRPPRLPRPRPRPNEQPRP
shrunken log2 fold change: 0.062

RRIRERPPRLPRPRPRPLNLPRP
shrunken log2 fold change: -0.312

RRIRQRPPRLPRPRPRPSDWPRP
shrunken log2 fold change: -0.131

RRIRHRPPRLPRPRPRPARHPRP
shrunken log2 fold change: 0.293

RRIRLRPPRLPRPRPRPFSKPRP
shrunken log2 fold change: -0.456

RRIRFRPPRLPRPRPRPMPNPRP
shrunken log2 fold change: 0.0592

RRIRVRPPRLPRPRPRPIDQPRP
shrunken log2 fold change: 0.216

RRIRYRPPRLPRPRPRPGHEPRP
shrunken log2 fold change: -0.18

RRIRPRPPRLPRPRPRPTFFPRP
shrunken log2 fold change: 0.212

RRIRKRPPRLPRPRPRPKFEPRP
shrunken log2 fold change: -0.0585

RRIRSRPPRLPRPRPRPWLGPRP
shrunken log2 fold change: -0.092

RRIRNRPPRLPRPRPRPPWIPRP
shrunken log2 fold change: -0.0807

RRIRSRPPRLPRPRPRPFNRPRP
shrunken log2 fold change: -0.363

RRIRHRPPRLPRPRPRPKVDPRP
shrunken log2 fold change: -0.0132

RRIRNRPPRLPRPRPRPLNGPRP
shrunken log2 fold change: -0.0206

RRIRRRPPRLPRPRPRPSRSPRP
shrunken log2 fold change: 0.139

RRIRDRPPRLPRPRPRPQHTPRP
shrunken log2 fold change: -0.403

RRIRERPPRLPRPRPRPYDHPRP
shrunken log2 fold change: -0.397

RRIRARPPRLPRPRPRPQADPRP
shrunken log2 fold change: -0.119

RRIRERPPRLPRPRPRPSSTPRP
shrunken log2 fold change: -0.32

RRIRPRPPRLPRPRPRPTPLPRP
shrunken log2 fold change: 0.453

RRIRARPPRLPRPRPRPFMYPRP
shrunken log2 fold change: -0.225

RRIRTRPPRLPRPRPRPIFGPRP
shrunken log2 fold change: -0.0261

RRIRYRPPRLPRPRPRPAHMPRP
shrunken log2 fold change: -0.015

RRIRARPPRLPRPRPRPFMEPRP
shrunken log2 fold change: 0.0746

RRIRMRPPRLPRPRPRPDISPRP
shrunken log2 fold change: -0.0568

RRIRVRPPRLPRPRPRPECKPRP
shrunken log2 fold change: 0.0339

RRIRMRPPRLPRPRPRPHTKPRP
shrunken log2 fold change: 0.137

RRIRMRPPRLPRPRPRPFRRPRP
shrunken log2 fold change: -0.117

RRIRVRPPRLPRPRPRPMGPPRP
shrunken log2 fold change: 0.24

RRIRSRPPRLPRPRPRPDERPRP
shrunken log2 fold change: 0.1

RRIRARPPRLPRPRPRPVLRPRP
shrunken log2 fold change: 0.228

RRIRRRPPRLPRPRPRPFHIPRP
shrunken log2 fold change: -0.0758

RRIRWRPPRLPRPRPRPTSGPRP
shrunken log2 fold change: 0.593

RRIRKRPPRLPRPRPRPCSWPRP
shrunken log2 fold change: 0.123

RRIRERPPRLPRPRPRPDNGPRP
shrunken log2 fold change: -0.0776

RRIRMRPPRLPRPRPRPKRPPRP
shrunken log2 fold change: 0.85

RRIRWRPPRLPRPRPRPIMLPRP
shrunken log2 fold change: 0.464

RRIRGRPPRLPRPRPRPNQAPRP
shrunken log2 fold change: -0.0774

RRIRHRPPRLPRPRPRPCDCPRP
shrunken log2 fold change: -0.138

RRIRRRPPRLPRPRPRPYPIPRP
shrunken log2 fold change: -0.269

RRIRSRPPRLPRPRPRPDRSPRP
shrunken log2 fold change: -0.0187

RRIRIRPPRLPRPRPRPTMRPRP
shrunken log2 fold change: 0.553

RRIRFRPPRLPRPRPRPTMMPRP
shrunken log2 fold change: -0.0556

RRIRQRPPRLPRPRPRPKCEPRP
shrunken log2 fold change: 0.0276

RRIRGRPPRLPRPRPRPRMWPRP
shrunken log2 fold change: 0.223

RRIRSRPPRLPRPRPRPKIRPRP
shrunken log2 fold change: -0.177

RRIRQRPPRLPRPRPRPWIDPRP
shrunken log2 fold change: -0.0353

RRIRPRPPRLPRPRPRPSTVPRP
shrunken log2 fold change: -0.687

RRIRSRPPRLPRPRPRPGDRPRP
shrunken log2 fold change: -0.267

RRIRHRPPRLPRPRPRPPSAPRP
shrunken log2 fold change: 0.496

RRIRYRPPRLPRPRPRPTPAPRP
shrunken log2 fold change: 0.238

RRIRIRPPRLPRPRPRPINDPRP
shrunken log2 fold change: -0.657

RRIRIRPPRLPRPRPRPPVGPRP
shrunken log2 fold change: 0.59

RRIRVRPPRLPRPRPRPTNQPRP
shrunken log2 fold change: 0.0229

RRIRGRPPRLPRPRPRPLDGPRP
shrunken log2 fold change: 0.342

RRIRVRPPRLPRPRPRPYGWPRP
shrunken log2 fold change: -0.0905

RRIRNRPPRLPRPRPRPGTYPRP
shrunken log2 fold change: -0.0105
